In patent US20250108100A1, “C-TERMINAL FRAGMENT OF APOLIPOPROTEIN E AND APPLICATION THEREOF IN INHIBITING y-SECRETASE ACTIVITY” (SYNPHATEC (SHANGHAI) BIOPHARMACEUTICAL TECHNOLOGY CO., LTD., priority 2022, published 2025):
Substitutions are numbered along the chain they refer to. Names may count otherwise. “Also recorded” adds a separate entry of the source.

B1: CT A80: SEQ ID NO: 51; ApoE CT mutant P80A (P295A of SEQ ID NO: 12) (protein)
chain: ARMEEMGSRTRDRLDEVKEQVAEVRAKLEEQAQQIRLQAEAFQARLKSWFEPLVEDMQRQWAGLVEKVQAAVGTSAAPVASDNH
B2: CT A36/74: SEQ ID NO: 52; ApoE CT mutant R36A + T74A (R251A + T289A of SEQ ID NO: 12) (protein)
chain: B1 chain with R36A, T74A, A80P
B3: monkey CT: SEQ ID NO: 62; non-human primate-derived ApoE CT, R36S+T74A+A76T versus human ApoE CT (protein)
chain: B1 chain with R36S, T74A, A76T, A80P
B4: CT A72: SEQ ID NO: 50; ApoE CT mutant V72A (V287A of SEQ ID NO: 12) (protein)
chain: B1 chain with V72A, A80P
B5: ApoE2 MD10: SEQ ID NO: 61; ApoE2 with amino acid residues at positions 244 to 254 deleted (protein)
chain: KVEQAVETEPEPELRQQTEWQSGQRWELALGRFWDYLRWVQTLSEQVQEELLSSQVTQELRALMDETMKELKAYKSELEEQLTPVAEETRARLSKELQAAQARLGADMEDVCGRLVQYRGEVQAMLGQSTEELRVRLASHLRKLRKRLLRDADDLQKCLAVYQAGAREGAERGLSAIRERLGPLVEQGRVRAATVGSLAGQPLQERAQAWGERLRARMEEMGSRTRDRLDEVKEQVAEVRAKLEAFQARLKSWFEPLVEDMQRQWAGLVEKVQAAVGTSAAPVPSDNH
B6: ApoE2-M3F: SEQ ID NO: 60; ApoE2 with 3×FLAG added between residues 215 and 216 (protein)
chain: KVEQAVETEPEPELRQQTEWQSGQRWELALGRFWDYLRWVQTLSEQVQEELLSSQVTQELRALMDETMKELKAYKSELEEQLTPVAEETRARLSKELQAAQARLGADMEDVCGRLVQYRGEVQAMLGQSTEELRVRLASHLRKLRKRLLRDADDLQKCLAVYQAGAREGAERGLSAIRERLGPLVEQGRVRAATVGSLAGQPLQERAQAWGERLRGSGGSDYKDHDGDYKDHDIDYKDDDDKSGSGSARMEEMGSRTRDRLDEVKEQVAEVRAKLEEQAQQIRLQAEAFQARLKSWFEPLVEDMQRQWAGLVEKVQAAVGTSAAPVPSDNH
modifications: 3xFLAG inserted between residues 215 and 216
B7: CT E20: SEQ ID NO: 55; multiple site mutant of ApoE CT (protein)
chain: B1 chain with Q20A, E40A, Q60A
B8: CT A40: SEQ ID NO: 47; ApoE CT mutant E40A (E255A of SEQ ID NO: 12); table prints CT A20 (protein)
chain: B1 chain with E40A, A80P
B9: CT A60: SEQ ID NO: 48; ApoE CT mutant Q60A (Q275A of SEQ ID NO: 12) (protein)
chain: B1 chain with Q60A, A80P
B10: CT E5: SEQ ID NO: 53; multiple site mutant of ApoE CT (protein)
chain: ARMEEMGSRARDRLAEVKEAVAEVAAKLEAQAQQARLQAAAFQAALKSWAEPLVADMQRAWAGLAEKVQAAVGTAAAPVASDNH
B11: CT E10: SEQ ID NO: 54; multiple site mutant of ApoE CT (protein)
chain: B1 chain with T10A, Q20A, E30A, E40A, F50A, Q60A
B12: CT A65: SEQ ID NO: 49; ApoE CT mutant V65A (V280A of SEQ ID NO: 12) (protein)
chain: B1 chain with V65A, A80P
B13: CT F5: SEQ ID NO: 56; multiple site mutant of ApoE CT (protein)
chain: B1 chain with R2A, M3A, E4A, E5A, A80P
B14: CT A20: SEQ ID NO: 46; ApoE CT mutant Q20A (Q235A of SEQ ID NO: 12) (protein)
chain: B1 chain with Q20A, A80P
B15: CT LF5: SEQ ID NO: 58; ApoE CT mutant R11A + D12A + R13A + L14A + D15A (protein)
chain: B1 chain with R11A, D12A, R13A, L14A, D15A, A80P
B16: CT R10: SEQ ID NO: 57; ApoE CT mutant S75A + P78A + V79A + P80A + S81A + D82A + N83A + H84A (protein)
chain: B1 chain with S75A, P78A, V79A, S81A, D82A, N83A, H84A
B17: CT LM5: SEQ ID NO: 59; ApoE CT mutant E23A + V24A + R25A + K27A (protein)
chain: B1 chain with E23A, V24A, R25A, K27A, A80P

The molecules below were run on human APP co-expressed in HEK 293T cells (assay: α-CTF produced by APP co-expressed in HEK 293T cells (Western blot)). Conditions: ApoE CT positive control.
Format: cell-based
Method: • a) A plasmid expressing the target protein in mammalian cells was constructed, and the protein expression promoter is CAG. • b) The target protein was expressed in HEK 293T cell line. Cells were subcultured one day before transfection, and transfection was performed when the degree of cell adhesion reached 70%-80%. The transfection reagent was lipofectamine2000 (ThermoFisher). • c) 4-6 hours post transfection, the medium were replaced with fresh cell culture medium. • d) 36-48 hours post transfection, the cells were lysed (10% 1M tris-HCl (pH=6.8), 4% SDS, 20% glycerol, 0.01% bromophenol blue), and the protein samples were collected and used for Western blot or stored in a −80° C. freezer. • e) Polyacrylamide gel electrophoresis. Before protein loading, the protein was boiled at 98° C. for 10 min, and then centrifuged at 12000 rpm for 10 min. Electrophoresis: 80V for the upper stacking gel; 120V for the lower separating gel. • f) Protein transfer. The filter paper was soaked in the electrophoresis solution before use, and the PVDF membrane was put in methanol for 10s to activate, and the gel after electrophoresis was taken out from the electrophoresis tank, put in the order of filter paper—PVD membrane—gel-filter paper from bottom to top, and they were put into the transfer instrument, with transferring in constant current at 0.1 A for 70 min. • g) Blocking and antibody incubation: the transferred PVDF membrane was placed in 5% BSA/TBST blocking solution, and blocked on a shaker at room temperature for 1 hour. The primary antibody was used to incubate at 4° C. overnight on a shaker (12-16 h); 1×TBST was used to wash three times, once every 10 minutes; the secondary antibody was used to incubate, shaked at room temperature for 1-2 h; 1×TBST was used to wash three times, once every 10 minutes. • h) Imaging by development: development was performed with ECL chemiluminescence hypersensitive chromogenic reagent.
Plasmids were transfected in HEK 293T or N2A cells for 36-48 hours and then lysed in cell lysis buffer [10% 1M tris-HCl (pH=6.8), 4% SDS, 20% glycerol, 0.01% bromophenol blue]. Lysates were shaken at room temperature for 10 min, then boiled for 10 min, and centrifuged at 12,000×g for 10 min. Proteins were run on 8% or 12% Tris-glycine SDS-PAGE and transferred to PVDF membranes (Life Technologies). Samples were incubated overnight at 4° C. with primary antibody diluted in 5% BSA buffer (in 1×TBST). After washing 3 times with 1×TBST, they were incubated with secondary antibody diluted in 5% BSA buffer (in 1×TBST) for 2 hours at room temperature. Finally, after washing 3 times with 1×TBST, the signal was detected by ECL Western blotting substrate (Solarbio, PE0010).
Data were analyzed by GraphPad Prism software (v6) using unpaired, paired, or one-sample t-tests. Aβ40 and Aβ42 levels were normalized to the corresponding GFP controls. α-CTF levels were normalized to FL-APP and corresponding GFP controls. All data are represented as mean±SEM. Statistical significance was defined as p<0.05. One, two, three and four stars (*) in the graph indicate p-values <0.05, <0.01, <0.001 and <0.0001, respectively.

| Molecule | degree of α-CTF increase compared to ApoE CT |
| --- | --- |
| B1 | even higher |
| B2 | even higher |
| B3 | identical to that of human ApoE CT |
| B4 | even higher |

Same assay, conditions: Western blot, vs GFP control

| Molecule | α-CTF produced by co-expressed APP |
| --- | --- |
| B5 | significantly increases α-CTF; also recorded: also increased α-CTF |
| B6 | significantly increases α-CTF; also recorded: increased α-CTF |
| B7 | can no longer increase α-CTF; also recorded: failed to increase |
| B8 | significantly increased α-CTF |
| B9 | significantly increased α-CTF |
| B1 | significantly increased α-CTF |
| B10 | can no longer increase α-CTF; also recorded: failed to increase |
| B2 | significantly increased α-CTF |
| B11 | can no longer increase α-CTF; also recorded: failed to increase |
| B12 | significantly increased α-CTF |
| B13 | can no longer increase α-CTF; also recorded: failed to increase |
| B14 | significantly increased α-CTF |
| B15 | still significantly increase α-CTF; also recorded: can also significantly increase α-CTF |
| B3 | also increase α-CTF |
| B4 | significantly increased α-CTF |
| B16 | still significantly increase α-CTF; also recorded: can also significantly increase α-CTF |
| B17 | still significantly increase α-CTF; also recorded: can also significantly increase α-CTF |

Same assay, conditions: Western blot, vs GFP control, listed as ApoE CT from a non-human primate

| Molecule | α-CTF produced by co-expressed APP |
| --- | --- |
| B3 | significantly increased α-CTF |
